Assay results reported in publication PMC6605747.

B1: Flag-tagged mouse CXCR4 C-terminally fused via a TEV protease cleavage site to tTA [mouse] / Myc-tagged COMMD8 C-terminally fused to TEV protease [not stated (mouse cDNA cloned for the MSCV2.2 vectors)] (parent)
chain 1: MEPEEGTPLWRLQKLPPEQGAGLLHKIIDGFCGRAYPAHQDYHSVWNSAEWKHVLEDVTTFFKAVVGKNFSEEETLQQLNQLNSCHQEAVLKCLKSRRNEIKQALLGEIVDISCAQLQDFDWQLKLALSSDKIATLQMPLLNLHLDVKEDDKVKPYTVEMSKEELQSLISSLEAANKVVLQLK
chain 2: MEPISVSIYTSDNYSEEVGSGDYDSNKEPCFRDENVHFNRIFLPTIYFIIFLTGIVGNGLVILVMGYQKKLRSMTDKYRLHLSVADLLFVITLPFWAVDAMADWYFGKFLCKAVHIIYTVNLYSSVLILAFISLDRYLAIVHATNSQRPRKLLAEKAVYVGVWIPALLLTIPDFIFADVSQGDISQGDDRYICDRLYPDSLWMVVFQFQHIMVGLILPGIVILSCYCIIISKLSHSKGHQKRKALKTTVILILAFFACWLPYYVGISIDSFILLGVIKQGCDFESIVHKWISITEALAFFHCCLNPILYAFLGAKFKSSAQHALNSMSRGSSLKILSKGKRGGHSSVSTESESSSFHSS

Variants of: B1
Test: Tango assay
Details: with Myc-tagged COMMD8 C-terminally fused to TEV protease [not stated (mouse cDNA cloned for the MSCV2.2 vectors)]; HTL cells; firefly luciferase normalized to Renilla luciferase, fold increase over unstimulated cells; read off a plot

Row | Variant | response (fold increase)
1 | chain 2 S353A S354A S355A | 0.87
